Test results reported in article PMC4383751.

Biological target: wild-type pyruvate kinase isoform M2 (PKM2^WT) (human) (UniProt P14618)
Test: SEC; gel filtration on Superdex 200 10/300 GL, in the absence of FBP; low protein concentration (less than 0.2 mg/mL); similar protein concentrations and conditions for all proteins; oxalate added in a further run (Fig. S1F)

Chain of wild-type pyruvate kinase isoform M2 (PKM2^WT), P14618 1-531 (enzyme; other documents disagree on this pair) (P14618 whole entry, canonical isoform): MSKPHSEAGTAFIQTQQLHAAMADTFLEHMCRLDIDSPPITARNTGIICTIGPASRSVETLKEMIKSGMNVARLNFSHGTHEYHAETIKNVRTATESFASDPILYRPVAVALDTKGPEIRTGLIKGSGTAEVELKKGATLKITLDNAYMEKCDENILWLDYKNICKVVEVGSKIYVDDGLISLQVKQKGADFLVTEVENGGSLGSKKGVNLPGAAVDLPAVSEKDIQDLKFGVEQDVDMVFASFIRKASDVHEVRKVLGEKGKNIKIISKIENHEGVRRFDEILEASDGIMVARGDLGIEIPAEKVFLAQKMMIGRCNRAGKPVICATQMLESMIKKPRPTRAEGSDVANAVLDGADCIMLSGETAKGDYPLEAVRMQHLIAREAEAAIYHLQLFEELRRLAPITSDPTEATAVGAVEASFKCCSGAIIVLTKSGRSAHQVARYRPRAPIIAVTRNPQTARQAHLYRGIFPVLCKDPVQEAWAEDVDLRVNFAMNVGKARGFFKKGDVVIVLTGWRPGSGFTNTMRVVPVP

With “wild-type pyruvate kinase isoform M2 (PKM2^WT), P14618 1-531 (enzyme; other documents disagree on this pair)” the stoichiometry N was 2.
